Laboratory results published in patent publication US20240067751A1 (KEYMED BIOSCIENCES, published 2024).

Legend:
MASP-2 in human serum [1] = molecular target: T1, MASP-2 in human serum (human, UniProt O00187 16-686); assay: cell-based or functional assay
MASP-2 in human serum [2] = molecular target: T1, MASP-2 in human serum; assay: cell-based or functional assay; remark: listed apart in the source

T1 sequence (O00187 16-686 limits assumed): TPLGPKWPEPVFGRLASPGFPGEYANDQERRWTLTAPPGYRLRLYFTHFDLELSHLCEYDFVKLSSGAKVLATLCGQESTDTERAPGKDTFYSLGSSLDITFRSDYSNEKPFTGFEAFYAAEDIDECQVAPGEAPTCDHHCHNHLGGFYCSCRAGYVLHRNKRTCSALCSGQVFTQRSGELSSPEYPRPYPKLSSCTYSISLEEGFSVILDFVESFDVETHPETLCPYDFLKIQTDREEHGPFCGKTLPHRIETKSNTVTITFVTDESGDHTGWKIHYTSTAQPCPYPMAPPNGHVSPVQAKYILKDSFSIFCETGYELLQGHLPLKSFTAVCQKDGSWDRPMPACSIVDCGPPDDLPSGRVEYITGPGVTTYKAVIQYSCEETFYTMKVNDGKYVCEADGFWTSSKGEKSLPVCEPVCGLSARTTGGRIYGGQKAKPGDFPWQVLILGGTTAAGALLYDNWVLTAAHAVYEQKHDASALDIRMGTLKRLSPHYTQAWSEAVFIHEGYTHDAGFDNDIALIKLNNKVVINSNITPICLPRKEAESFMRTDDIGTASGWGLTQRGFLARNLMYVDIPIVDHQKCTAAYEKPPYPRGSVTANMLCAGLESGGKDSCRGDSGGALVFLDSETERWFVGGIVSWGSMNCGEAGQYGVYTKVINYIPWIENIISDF

Binder | IC50, inhibition of C4b deposition (MASP-2 in human serum [1]) | IC50, inhibition of C3b deposition (MASP-2 in human serum [2])
h3H6 H1K1 (antibody, V domains shown) VH: QVQLVQSGAEVKKPGSSVKVSCKASGYTFATYSIHWVRQAPGQGLEWMGYINPSSGYTNYNQKFQGRVTLTADKSTSTAYMELSSLRSEDTAVYYCARVYYTFYHAMDYWGQGTTVTVSS VL: DIQMTQSPSSLSASVGDRVTITCRASQDVNTAVAWYQQKPGKAPKLLIYSASYRYTGVPSRFSGSGSGTDFTLTISSLQPEDFATYYCQQHYNIPLTFGGGTKVEIK | 0.014 nM | 0.03 nM
h3H6 H2K1 (antibody, V domains shown) VH: QVQLVQSGAEVKKPGSSVKVSCKASGYTFATYSIHWVRQAPGQGLEWMGYINPSSGYTNYNQKFQGRVTLTADESTSTAYMELSSLRSEDTAVYYCARVYYTFYHAMDYWGQGTTVTVSS VL: DIQMTQSPSSLSASVGDRVTITCRASQDVNTAVAWYQQKPGKAPKLLIYSASYRYTGVPSRFSGSGSGTDFTLTISSLQPEDFATYYCQQHYNIPLTFGGGTKVEIK | 0.086 nM | 0.151 nM
h3H6 H3K1 (antibody, V domains shown) VH: QVQLVQSGAEVKKPGSSVKVSCKASGYTFATYSIHWVRQAPGQGLEWMGYINPSSGYTNYNQKFQGRVTITADKSTSTAYMELSSLRSEDTAVYYCARVYYTFYHAMDYWGQGTTVTVSS VL: DIQMTQSPSSLSASVGDRVTITCRASQDVNTAVAWYQQKPGKAPKLLIYSASYRYTGVPSRFSGSGSGTDFTLTISSLQPEDFATYYCQQHYNIPLTFGGGTKVEIK | 0.017 nM | 0.034 nM
h3H6 H4K1 (antibody, V domains shown) VH: QVQLVQSGAEVKKPGSSVKVSCKASGYTFATYSIHWVRQAPGQGLEWMGYINPSSGYTNYNQKFQGRVTITADESTSTAYMELSSLRSEDTAVYYCARVYYTFYHAMDYWGQGTTVTVSS VL: DIQMTQSPSSLSASVGDRVTITCRASQDVNTAVAWYQQKPGKAPKLLIYSASYRYTGVPSRFSGSGSGTDFTLTISSLQPEDFATYYCQQHYNIPLTFGGGTKVEIK | 0.09 nM | 0.151 nM
h28O14 H1K1 (antibody, V domains shown) VH: QVQLVQSGAEVKKPGSSVKVSCKASGYTFRSHTMHWVRQAPGQGLEWMGYINPSTGYINYNQKFQGRVTLTADKSTSTAYMELSSLRSEDTAVYYCARSNYAYYYGMDYWGQGTTVTVSS VL: DIQMTQSPSSLSASVGDRVTITCRASQDVNTAVAWYQQKPGKAPKLLIYSASYRYTGVPSRFSGSGSGTDFTLTISSLQPEDFATYYCQQHYNIPLTFGGGTKVEIK | 0.083 nM | 0.146 nM
h28O14 H2K1 (antibody, V domains shown) VH: QVQLVQSGAEVKKPGSSVKVSCKASGYTFRSHTMHWVRQAPGQGLEWMGYINPSTGYINYNQKFQGRVTLTADESTSTAYMELSSLRSEDTAVYYCARSNYAYYYGMDYWGQGTTVTVSS VL: DIQMTQSPSSLSASVGDRVTITCRASQDVNTAVAWYQQKPGKAPKLLIYSASYRYTGVPSRFSGSGSGTDFTLTISSLQPEDFATYYCQQHYNIPLTFGGGTKVEIK | 0.324 nM | 0.483 nM
h28O14 H3K1 (antibody, V domains shown) VH: QVQLVQSGAEVKKPGSSVKVSCKASGYTFRSHTMHWVRQAPGQGLEWMGYINPSTGYINYNQKFQGRVTITADKSTSTAYMELSSLRSEDTAVYYCARSNYAYYYGMDYWGQGTTVTVSS VL: DIQMTQSPSSLSASVGDRVTITCRASQDVNTAVAWYQQKPGKAPKLLIYSASYRYTGVPSRFSGSGSGTDFTLTISSLQPEDFATYYCQQHYNIPLTFGGGTKVEIK | 0.064 nM | 0.161 nM
h28O14 H4K1 (antibody, V domains shown) VH: QVQLVQSGAEVKKPGSSVKVSCKASGYTFRSHTMHWVRQAPGQGLEWMGYINPSTGYINYNQKFQGRVTITADESTSTAYMELSSLRSEDTAVYYCARSNYAYYYGMDYWGQGTTVTVSS VL: DIQMTQSPSSLSASVGDRVTITCRASQDVNTAVAWYQQKPGKAPKLLIYSASYRYTGVPSRFSGSGSGTDFTLTISSLQPEDFATYYCQQHYNIPLTFGGGTKVEIK | 0.338 nM | 0.506 nM
h16B11 H1K1 (antibody, V domains shown) VH: QMQLQESGPGLVKPSETLSLTCTVSGYSITSDYAWNWIRQPPGKGLEWIGYISYSGRTSYNPSLKSRVTISRDTSKNQFSLKLSSVTAADTAVYYCARHYGDYWGQGTLVTVSS VL: DIQMTQSPSSLSASVGDRVTITCRASQNVGTNVAWYQQKPGKAPKALIYSASYRESGVPSRFSGSGSGTDFTLTISSLQPEDFATYFCQQFNTNPLTFGGGTKVEIK | 0.02 nM | 0.014 nM
h16B11 H1K2 (antibody, V domains shown) VH: QMQLQESGPGLVKPSETLSLTCTVSGYSITSDYAWNWIRQPPGKGLEWIGYISYSGRTSYNPSLKSRVTISRDTSKNQFSLKLSSVTAADTAVYYCARHYGDYWGQGTLVTVSS VL: DIQMTQSPSSLSASVGDRVTITCRASQNVGTNVAWYQQKPGKAPKLLIYSASYRESGVPSRFSGSGSGTDFTLTISSLQPEDFATYFCQQFNTNPLTFGGGTKVEIK | 0.051 nM | 0.04 nM
h16B11 H1K3 (antibody, V domains shown) VH: QMQLQESGPGLVKPSETLSLTCTVSGYSITSDYAWNWIRQPPGKGLEWIGYISYSGRTSYNPSLKSRVTISRDTSKNQFSLKLSSVTAADTAVYYCARHYGDYWGQGTLVTVSS VL: DIQMTQSPSSLSASVGDRVTITCRASQNVGTNVAWYQQKPGKAPKALIYSASYRQSGVPSRFSGSGSGTDFTLTISSLQPEDFATYFCQQFNTNPLTFGGGTKVEIK | 0.021 nM | 0.023 nM
h16B11 H2K1 (antibody, V domains shown) VH: QLQLQESGPGLVKPSETLSLTCTVSGYSITSDYAWNWIRQPPGKGLEWIGYISYSGRTSYNPSLKSRVTISRDTSKNQFSLKLSSVTAADTAVYYCARHYGDYWGQGTLVTVSS VL: DIQMTQSPSSLSASVGDRVTITCRASQNVGTNVAWYQQKPGKAPKALIYSASYRESGVPSRFSGSGSGTDFTLTISSLQPEDFATYFCQQFNTNPLTFGGGTKVEIK | 0.02 nM | 0.017 nM
h16B11 H1K4 (antibody, V domains shown) VH: QMQLQESGPGLVKPSETLSLTCTVSGYSITSDYAWNWIRQPPGKGLEWIGYISYSGRTSYNPSLKSRVTISRDTSKNQFSLKLSSVTAADTAVYYCARHYGDYWGQGTLVTVSS VL: EIVMTQSPATLSVSPGERATLSCRASQNVGTNVAWYQQKPGQAPRALIYSASYRESGIPARFSGSGSGTEFTLTISSLQSEDFAVYFCQQFNTNPLTFGGGTKVEIK | – | 0.015 nM
h16B11 H1K5 (antibody, V domains shown) VH: QMQLQESGPGLVKPSETLSLTCTVSGYSITSDYAWNWIRQPPGKGLEWIGYISYSGRTSYNPSLKSRVTISRDTSKNQFSLKLSSVTAADTAVYYCARHYGDYWGQGTLVTVSS VL: EIVMTQSPATLSVSPGERATLSCRASQNVGTNVAWYQQKPGQAPRLLIYSASYRESGIPARFSGSGSGTEFTLTISSLQSEDFAVYFCQQFNTNPLTFGGGTKVEIK | – | 0.024 nM
h16B11 H1K6 (antibody, V domains shown) VH: QMQLQESGPGLVKPSETLSLTCTVSGYSITSDYAWNWIRQPPGKGLEWIGYISYSGRTSYNPSLKSRVTISRDTSKNQFSLKLSSVTAADTAVYYCARHYGDYWGQGTLVTVSS VL: EIVMTQSPATLSVSPGERATLSCRASQNVGTNVAWYQQKPGQAPRALIYSASYRQSGIPARFSGSGSGTEFTLTISSLQSEDFAVYFCQQFNTNPLTFGGGTKVEIK | – | 0.018 nM
h16B11 H2K4 (antibody, V domains shown) VH: QLQLQESGPGLVKPSETLSLTCTVSGYSITSDYAWNWIRQPPGKGLEWIGYISYSGRTSYNPSLKSRVTISRDTSKNQFSLKLSSVTAADTAVYYCARHYGDYWGQGTLVTVSS VL: EIVMTQSPATLSVSPGERATLSCRASQNVGTNVAWYQQKPGQAPRALIYSASYRESGIPARFSGSGSGTEFTLTISSLQSEDFAVYFCQQFNTNPLTFGGGTKVEIK | – | 0.015 nM
h16B11 H2K5 (antibody, V domains shown) VH: QLQLQESGPGLVKPSETLSLTCTVSGYSITSDYAWNWIRQPPGKGLEWIGYISYSGRTSYNPSLKSRVTISRDTSKNQFSLKLSSVTAADTAVYYCARHYGDYWGQGTLVTVSS VL: EIVMTQSPATLSVSPGERATLSCRASQNVGTNVAWYQQKPGQAPRLLIYSASYRESGIPARFSGSGSGTEFTLTISSLQSEDFAVYFCQQFNTNPLTFGGGTKVEIK | – | 0.032 nM
h16B11 H2K6 (antibody, V domains shown) VH: QLQLQESGPGLVKPSETLSLTCTVSGYSITSDYAWNWIRQPPGKGLEWIGYISYSGRTSYNPSLKSRVTISRDTSKNQFSLKLSSVTAADTAVYYCARHYGDYWGQGTLVTVSS VL: EIVMTQSPATLSVSPGERATLSCRASQNVGTNVAWYQQKPGQAPRALIYSASYRQSGIPARFSGSGSGTEFTLTISSLQSEDFAVYFCQQFNTNPLTFGGGTKVEIK | – | 0.018 nM
h16B11 H3K4 (antibody, V domains shown) VH: QLQLQESGPGLVKPSETLSLTCTVSGYSITSDYAWNWIRQPPGKGLEWIGYISYSGRTSYNPSLKSRVTISVDTSKNQFSLKLSSVTAADTAVYYCARHYGDYWGQGTLVTVSS VL: EIVMTQSPATLSVSPGERATLSCRASQNVGTNVAWYQQKPGQAPRALIYSASYRESGIPARFSGSGSGTEFTLTISSLQSEDFAVYFCQQFNTNPLTFGGGTKVEIK | – | 0.052 nM
h16B11 H3K5 (antibody, V domains shown) VH: QLQLQESGPGLVKPSETLSLTCTVSGYSITSDYAWNWIRQPPGKGLEWIGYISYSGRTSYNPSLKSRVTISVDTSKNQFSLKLSSVTAADTAVYYCARHYGDYWGQGTLVTVSS VL: EIVMTQSPATLSVSPGERATLSCRASQNVGTNVAWYQQKPGQAPRLLIYSASYRESGIPARFSGSGSGTEFTLTISSLQSEDFAVYFCQQFNTNPLTFGGGTKVEIK | – | 0.44 nM
h16B11 H3K6 (antibody, V domains shown) VH: QLQLQESGPGLVKPSETLSLTCTVSGYSITSDYAWNWIRQPPGKGLEWIGYISYSGRTSYNPSLKSRVTISVDTSKNQFSLKLSSVTAADTAVYYCARHYGDYWGQGTLVTVSS VL: EIVMTQSPATLSVSPGERATLSCRASQNVGTNVAWYQQKPGQAPRALIYSASYRQSGIPARFSGSGSGTEFTLTISSLQSEDFAVYFCQQFNTNPLTFGGGTKVEIK | – | 0.071 nM
